{
  "source": "the nanobody polyreactivity screen of Harvey et al. (2022)",
  "data": [
    {"assay": "yeast display, Sf9 membrane polyspecificity reagent, FACS + sequencing; frameworks hold sequencing errors", "how_it_was_run": "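Galactose induction of a Saccharomyces cerevisiae BJ5465 synthetic nanobody display library ran 36–48 hours. The cells were then stained for 1 hour at 4 °C with 10% biotinylated, detergent-solubilized Sf9 membrane reagent, pulled down on streptavidin microbeads and FACS-sorted into low and high (top ~1%) gates on expression and reagent-binding fluorescence. Labels for polyreactivity follow the gate of origin.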", "values": [
      {"sequence": "QDQLVESGGGLVQAGGSLRLSCAASGLTFRLYAMGSYRQAPAKEREWVAAITSSSGSTYYADSVKGRFTISRDTANYTVYLQMNSLKPEDTAVYYCNAVRYTTQTPNVDYGYWGLGTQVTVSS", "polyreactivity (PSR sort gate)": "high polyreactivity"},
      {"sequence": "QVQLVESGGGLVQAGGSLRLSCAASGRIFRGYAMGWYRQAPGKEREFVAAITKNGGSTYYADSVKGRFTISRDNAKNTVYLQMHSLKPEDTAVYYCAVRAWDPYTGKSDYWGQGTQVTVSS", "polyreactivity (PSR sort gate)": "low polyreactivity"},
      {"sequence": "QVQLVESGGGLVQAGGSLRLSCAASGLTFYAYVMGWYRPAPGNERELVAAISGGGSTYYADSVKGRFTISRDNAKNSVYLEMISLKPEDTAVYYCNAELSLWDLGYDYWVQGTQVTVSS", "polyreactivity (PSR sort gate)": "low polyreactivity"},
      {"sequence": "QVQLVESGGGLVQAGGSLRLSCAPSGFTFYPYAMGWSRQAPGKERELVAAIRYSGGSTYYADSVKGRFTISRDNAKNTVYLQMNSLKPEATAVYYCAADGSNPWYRNSWSRYRFGYWGQGTQVTVSS", "polyreactivity (PSR sort gate)": "high polyreactivity"},
      {"sequence": "QVQLVESGRGLVQAGGRLRLSCAASGSTFDGYAMGLYRQAPGKERELVAAITVSVGSTYYADSVKGRFTISRDNAKNTVYLQMNSLKPEDTAVYYCAADYDYQYRYYYWGQGTKVTVSS", "polyreactivity (PSR sort gate)": "low polyreactivity"},
      {"sequence": "QVQLVESGGGLVQAGGSLRLSCAASGFTFRWYAMGWYRQAPGKERELVADITRHGGSTYYADSVKGRFTISRDNAKNTVYLQMNSLKPEDTAVYYCAKQNETPWQAYYFDWPEFDYWGQGTQVTVSS", "polyreactivity (PSR sort gate)": "low polyreactivity"},
      {"sequence": "QVQLVESGGGLVQAGGSLRLSCAASGGIFVLYAMGWYRQAPGKERELVAAIRYGGSSTYYADSVKGRFTISRDYAKNTVYLQMNSLKPEDTAVYYCAAEPYSWDTWVDYDYWGQGTQVTVSS", "polyreactivity (PSR sort gate)": "low polyreactivity"},
      {"sequence": "QVKLVESGGGLVQAGGSLRLSCAASGSTFYKYTMGWNRQEPGKGRELVAAINWSGSTYYADSVKGRFTISRDNAKNTVYLQMNSLKTEDTAVYYCAATYIYRYDYWGQGTQVTVSS", "polyreactivity (PSR sort gate)": "high polyreactivity"},
      {"sequence": "QVQLVESGGGLVQAGGSLRLSCASSGRTFYIYAIGWYRQAAGKERELVASISRGGSTTYADSVKGRFTISRDNAKNTVYLQMNSLKPEDTAVYYCNARAYYDMNQWGQGTQVTVSS", "polyreactivity (PSR sort gate)": "low polyreactivity"},
      {"sequence": "QVQLVESGGGLVQAGGSLRLSCAASGLTFDAYAMGWYRQAPGKERELDAAISSGGNTYYADSVKGRFTISRDNAKNTVYLQMNSLKPEDTAVYYCNAVGYYKYFFLAYEYDYWGQGTQVTVSS", "polyreactivity (PSR sort gate)": "low polyreactivity"},
      {"sequence": "QVQLVESGGGLVHAGGSLRLSCAASGRIFRIYAMGWYRQAPGKERELVAAISRGGRTNYADSVKGRFTISRDNAKNTVYLQMNSLKPEDTAVYYCNATSNWGPTKVRFNYWGQGTQVTVSS", "polyreactivity (PSR sort gate)": "high polyreactivity"},
      {"sequence": "QVNLVESGGVSVQAGGSLRLSCAASGLIFDKYAMGWYRQAPGKERELVAAITRSSGTTYYADSVKGRFTISRDNAKNTVYLLLISVTPEDTAVYYCPAPFIWGYWGVGYYYWGQGTHVTVSS", "polyreactivity (PSR sort gate)": "low polyreactivity"},
      {"sequence": "QVQLVESGGGLVQAGGSLRLSCAASGSTFGNNTMGWYRQAPGKEREFVAAITESGGGTYADSVKGRFTISRDNAKNTVYLQMNSLKPEDTAVYYCAAVWYIWPFAFYYWGQGTQVTVSS", "polyreactivity (PSR sort gate)": "high polyreactivity"},
      {"sequence": "QVQLVESGGGLVQAGGSLRLSCAASGRTLAHYTMGWYRQAPGKERELVAAITFSGGRTYYADSVKGRFTISRDNAKNTVYLQMNSQKPEDTAVYYCAAPGRWYYRGDDYWGQGTQVTVSS", "polyreactivity (PSR sort gate)": "low polyreactivity"},
      {"sequence": "QVCLQESGGGLVQACGSLRLSCAASGTISRDIFMGWYRQAPGKEREFVATIAQGGITNYADSVKGRFTISRDNAKNTVYLQMNSVKPGDTAVYYCAARDGNCYWFYYWGQGTQVTVSS", "polyreactivity (PSR sort gate)": "high polyreactivity"},
      {"sequence": "QVQLVESGGGLVQAGGSLRLSCAASGITFSYYAMGWYRQAPGKERELVAVISRRGGTTYYADSVKGRFTISRDNAKNTVYLQMNSLKPEDTAVYYCAATYISVLGYEYWGQGTQVTVSS", "polyreactivity (PSR sort gate)": "high polyreactivity"},
      {"sequence": "QVQLVESGGGLVQAGGSLRLICAASGRIFDFYAMGWYRQAPGKDRELVAAITTGDSTYYADSVKGRFTISRDNAKNTVYLQMNSLKPEDTAVYDCAAVGHGGWDGDDYWGQGTQVTVSS", "polyreactivity (PSR sort gate)": "low polyreactivity"},
      {"sequence": "QVQLVESGGGLVQAGGSLRLSCAASGSIFSFYAMGWYRQAPGKRELVAAISGNGGSTFYADSVKGRFTISRDNAKNTVYLQMNSLKPEDTAVYYCAAYSYRYKYYYWGQGTQVTVSS", "polyreactivity (PSR sort gate)": "high polyreactivity"},
      {"sequence": "QVQLVESGGGLVQAGGSLRLSCAASGSILAYNAMGWYRQAPGKERELVASITTSGGSTYYADSVKGRFTISRDNAKNTVYLQMNSLKPEDTAVYYCNAEYWLGRWLRYGYWGQGTQVTVSS", "polyreactivity (PSR sort gate)": "high polyreactivity"},
      {"sequence": "QVQLVESGGGLVQAGGSLRLSCAASGFTFKYYAMGWYRQAPGKERELVARISWSGGSTYYADSVKGRFTISRDNAKNTFFLQMNSLKPEDTAVYYCNTDFGYGFDYWGQGTQVSVSS", "polyreactivity (PSR sort gate)": "high polyreactivity"},
      {"sequence": "QVQLVESGGGLVQAVGSLRLSCAASGRIFNYYAMGWYRQAPGKEREMVAGISGYGTSTYYADSVKGRFTISRDNAKNTVYLQMNSLKPEDTAVYYCAADVFRDDVWLDYWGHGTQVTVSS", "polyreactivity (PSR sort gate)": "low polyreactivity"},
      {"sequence": "QVQLVESGGGLVQAGGSLRLSCAASGRTFWNYAKGWYRQAPGNERELVAVIRFSDGSTYYADSVKGRFTISRDNAKNTVYLQMNSLKPEDTAVYYCAAKGPRRWGSGFDYWGQGTQVTVSS", "polyreactivity (PSR sort gate)": "low polyreactivity"},
      {"sequence": "QVQLVESGGGLVQAGGSLRLSCAASGRIFDNNAMGWYIQAPGKERELVAAIDWPGGSTDYADSVKGRFTISRDNAKNTVYLQMNSLIPEDTAVYYCVAGNVPYWHGNSYDYWGQGTQVTVSS", "polyreactivity (PSR sort gate)": "low polyreactivity"},
      {"sequence": "QVQLVESGGGVVQAGGSLRLSCAASGFIFSYNVMVWYRQAPGKERELVAAISSSGGSTYYADSVKGRFTISRDNAKNTAYLQMNSLKPEDTAVYYCATRVSRSFRAYDYWGQGTQVTVSS", "polyreactivity (PSR sort gate)": "high polyreactivity"},
      {"sequence": "QVQLVESGGGLVQAGGSLRLSCAASGFTFYWYAMGWYRQAPGKERELVAAITRSGSSTYYADSVKGRFTISRDNAKNTVYLQMNSLKPEDTAVYYCAKAYRPPGYDSWGQGTQVTVSS", "polyreactivity (PSR sort gate)": "high polyreactivity"},
      {"sequence": "QVQLVESGGGLVQAGGSLRLSCAASGFTFGRYAMGWYRQAPGKEREFVAAITWSGGGTYYADSVKGRFTISRDNAKYTVYLQMYSLKPEDTAVYYCAADRRAYGGGYWGQGTQVTVSS", "polyreactivity (PSR sort gate)": "high polyreactivity"},
      {"sequence": "QVQLVESGGGLVQAGGSLRLSCAASGRTFDGNAMGWYRQAPGKERELVAAISKRGGTTYYADSVKGRFTISRDKAKNTVYLQMTSLKPEDTAVYYCAAPYNTYSYSEGEYWGQGTQVTVST", "polyreactivity (PSR sort gate)": "low polyreactivity"},
      {"sequence": "QVQLVESGGGLVQAGGSLRLSCAASGFTFWWYAMGWYRQAPGKERQLVAGITSGASTYYADSVKGRYTISRDNAKNTVYLQMNSLKPEDTAVYYCAADWLGWYQPYDYWGQGTQVTVSS", "polyreactivity (PSR sort gate)": "low polyreactivity"},
      {"sequence": "QVQLVESGGGLVQAGGSLRLSCAASGFTFRWYAMGWYRQAPGKERELVAAISTTGGSTYYADSVKGRFTISRDNAKNTVYFQLNSLKPEDTAVYYCNVYSGRYWESHKFDSWGQGTQVTVSS", "polyreactivity (PSR sort gate)": "high polyreactivity"},
      {"sequence": "QVQLVESGGGLVQAGGSLRLSCAASGRIFKYYAMGWYRQAPGKERELVAAISRSGGRTYYADSVKGRFTISRDNAKNTVYLQMNSLKPEDTAVYYCNARVYSGHNYWGQGTQVTVSS", "polyreactivity (PSR sort gate)": "high polyreactivity"},
      {"sequence": "QVQLVESGGGLVQAGGSLRLSCAASGSTFIFYAMGWYRQAPGKERELVAAISSGGITNYADSVKGRFTISRDNAKNTVYLQMNSLKPEDTAVYYCAKRKGPRWSRQYRYPYYSWGQGTQVTVSS", "polyreactivity (PSR sort gate)": "high polyreactivity"},
      {"sequence": "QVQLVESGGGLVQAGGSLRLSCAASGIISGDYAMGWYRQAPGKERELVARITSGDSTNYADSVKGRFTISRDNAKNTVYLQMNSLKPEDTAVYYCAAKRYVFQNDYWGQGTQVTVSS", "polyreactivity (PSR sort gate)": "low polyreactivity"},
      {"sequence": "QVHLVESGGGLVQAGGSLRLSCAASGFTFDYYTMGWYRPAPGKERELVAAITSSAGSTDYADSVKGRFTISRDNAKNTVYLQMNSLKPEDTAVYYCNADFLYGTYDYWGQGTQVTVSS", "polyreactivity (PSR sort gate)": "low polyreactivity"},
      {"sequence": "QVQLVESGGGLVQAGGSLRLSCAASGRTFNRYAMGWYRQAPGKERELVAVITSDGRTNYADSVKGRFTISRDNAKNTVYLQMNSLKPEDSAVYYCNKRSALSFVYDFDYWGQGTQVTVSS", "polyreactivity (PSR sort gate)": "low polyreactivity"},
      {"sequence": "QVQLQESGGVLVQAGGSLRLSCAASGSIFVSVTMGWYRQAPGKERELVASIGRGSTTNHADSVKGRFTISRDNAKNIVYLLMNSLKPEDTAVYYCAALESYGKYHGYWGQGTQVTVSS", "polyreactivity (PSR sort gate)": "low polyreactivity"},
      {"sequence": "QVHLVESGGGLVQAGGSLRLCCAASGSILVSYAMGWYRQAAGKERELVAAITYTGGNTYYADSGKGRFTISRDNAKNTVYVQLNSQKPEDTAVYYCNAGWTQTSVTFDYWGQGTQVTVSS", "polyreactivity (PSR sort gate)": "low polyreactivity"},
      {"sequence": "QVQLVESGGGLVQAGGSLRLSCAASGSILYVYAMGWYTQAPGKERELVAAISNRDGSTYYADSVKGRFTISRDNAKNTVYLQMNSLKPEDTAVYYCNADGYGDYSFLKYRFEYDYWGQGTQVTVSS", "polyreactivity (PSR sort gate)": "low polyreactivity"},
      {"sequence": "QVQLVESRGGLVQAGGSLRLSFGASGRTFRWYAMVWYRQAPGKERELVAAITYSVGSTYYADSVKGRFTISRDNAKNTVYLQMNSLKPEDSAVYSCAADSYPYRYRGKYSRLDYWGQGTQVTVSS", "polyreactivity (PSR sort gate)": "low polyreactivity"},
      {"sequence": "HDQLVETGGGLVQAGGSLRLSCAASGRTYSKYAMGRYRQPPGKERELVAAITSGGGTYYADSVKGRFTISRDNAKNTVYVQMNSLSPEDSAVYYCAVSVTTVSTHDYWGQGTQVTVSS", "polyreactivity (PSR sort gate)": "low polyreactivity"},
      {"sequence": "QVQLVEAGGGVVQAGGSLRLSCAASGIIFYPYALGWYRQAPGKERELVADITSGGGTNYADSVKGRFTISRDNAKNTVYLQMNSLKPEDTAVYDCAAEVRGYHWGTYYEFYYWGQGTQVTVSS", "polyreactivity (PSR sort gate)": "low polyreactivity"},
      {"sequence": "QVQLVESGGGLVQAGGSLRLSCAASGSTFVWNAMGWYRQAPGKERELVATITLSTGSSYYADSVKGRFTISRDNAKNTVYLQMNSLKPEDTAVYYCNTEIYVDIISDYGYWGQGTQLTVSS", "polyreactivity (PSR sort gate)": "low polyreactivity"},
      {"sequence": "QVQLVESGGGLVQAGGSLRLSCAASGRIFKRNAMGWYRQAPGKERELVAAISSGTSTNYADSVKGRFTISRDNAKNTVYLQMNSLKPEDTAVYYCAVRPVDYRGYYYWGQGTQVTVSS", "polyreactivity (PSR sort gate)": "high polyreactivity"},
      {"sequence": "QFQLVESGGGLVQAGGSLRLSCAASGSIFDGNAMGWYRQAPGKERELVAAISRRGGSTYYADSVKGRFTISRYNAKNTVYLQMNSLKPEDTAVYYCNAYLSYFDGNYWGQGTQVTVSS", "polyreactivity (PSR sort gate)": "high polyreactivity"}
    ]}
  ]
}
